Where two headings read alike, the source gives them in different places.
Columns and labels:
Format in all cases: binding
[1] = tested on: SARS-CoV-2 gRNA; conditions: […]; LC-MS/MS; Probe I sample (first 199 lines of Table 2)
[2] = tested on: gRNA of HCoV-OC43; conditions: for target (spectral count) / background (spectral count): type g_36_m, 36 hpi, Probe I; for target (spectral count): HCoV-OC43-infected HCT-8 cells; for background (spectral count): uninfected-probe control; for target (spectral count, OC43 Probe I RNP capture) / background (spectral count, no-probe control): type n_48_v: 48 hours post-infection; for target (spectral count, OC43 Probe I RNP capture): infected cells, unweighted spectral count; for background (spectral count, no-probe control): no-probe control on infected cells
[3] = tested on: HCoV-OC43 gRNA and sgRNA; conditions: for target (unweighted spectral count, OC43 Probe II capture) / target (unweighted spectral count): tested against no-probe control; for target (unweighted spectral count, OC43 Probe II capture): FDR<10%; for target (spectral count) / background (spectral count): type s_36_m, Probe II; for target (spectral count): HCoV-OC43-infected HCT-8 cells; for background (spectral count): uninfected-probe control; for target (unweighted spectral count): OC43 Probe II, infected cells; for target (unweighted spectral count, OC43 Probe II) / background (unweighted spectral count, no-probe control): type n_48_v, 48 hpi; for target (unweighted spectral count, OC43 Probe II): OC43 Probe II capture on infected cells; for background (unweighted spectral count, no-probe control): no-probe control on infected cells

B1: FBL: host protein, UniProt P22087 (protein, UniProt P22087 1-321, looked up)
rRNA 2'-O-methyltransferase …: MKPGFSPRGGGFGGRGGFGDRGGRGGRGGFGGGRGRGGGFRGRGRGGGGGGGGGGGGGRGGGGFHSGGNRGRGRGGKRGNQSGKNVMVEPHRHEGVFICRGKEDALVTKNLVPGESVYGEKRVSISEGDDKIEYRAWNPFRSKLAAAILGGVDQIHIKPGAKVLYLGAASGTTVSHVSDIVGPDGLVYAVEFSHRSGRDLINLAKKRTNIIPVIEDARHPHKYRMLIAMVDVIFADVAQPDQTRIVALNAHTFLRNGGHFVISIKANCIDSTASAEAVFASEVKKMQQENMKPQEQLTLEPYERDHAVVVGVYRPPPKVKN
target (unweighted spectral count of the protein in the RNP capture) [1]: 5
target (spectral count) [2]: 10
background (spectral count) [2]: 1
target (spectral count, OC43 Probe I RNP capture) [2]: 9
background (spectral count, no-probe control) [2]: 2
target (unweighted spectral count, OC43 Probe II capture) ([3]; 24 hpi, type n_24_v): 4
target (unweighted spectral count, OC43 Probe II capture) ([3]; 36 hpi, type n_36_v): 11
target (spectral count) ([3]; 36 hpi): 11
background (spectral count) ([3]; 36 hpi): 1

B2: GRSF1 (protein, UniProt Q12849 118-480, looked up)
G-rich sequence factor 1: SQESKTTYLEDLPPPPEYELAPSKLEEEVDDVFLIRAQGLPWSCTMEDVLNFFSDCRIRNGENGIHFLLNRDGKRRGDALIEMESEQDVQKALEKHRMYMGQRYVEVYEINNEDVDALMKSLQVKSSPVVNDGVVRLRGLPYSCNEKDIVDFFAGLNIVDITFVMDYRGRRKTGEAYVQFEEPEMANQALLKHREEIGNRYIEIFPSRRNEVRTHVGSYKGKKIASFPTAKYITEPEMVFEEHEVNEDIQPMTAFESEKEIELPKEVPEKLPEAADFGTTSSLHFVHMRGLPFQANAQDIINFFAPLKPVRITMEYSSSGKATGEADVHFETHEDAVAAMLKDRSHVHHRYIELFLNSCPKGK
target (unweighted spectral count of the protein in the RNP capture) [1]: 14
target (unweighted spectral count, OC43 Probe II capture) ([3]; 24 hpi, type n_24_v): 4

B3: POLDIP3: host protein, UniProt Q9BY77 (protein, UniProt Q9BY77 2-421, looked up)
Polymerase delta-interacting …: ADISLDELIRKRGAAAKGRLNARPGVGGVRSRVGIQQGLLSQSTRTATFQQRFDARQKIGLSDARLKLGVKDAREKLLQKDARFRIKGKVQDAREMLNSRKQQTTVPQKPRQVADAREKISLKRSSPAAFINPPIGTVTPALKLTKTIQVPQQKAMAPLHPHPAGMRINVVNNHQAKQNLYDLDEDDDGIASVPTKQMKFAASGGFLHHMAGLSSSKLSMSKALPLTKVVQNDAYTAPALPSSIRTKALTNMSRTLVNKEEPPKELPAAEPVLSPLEGTKMTVNNLHPRVTEEDIVELFCVCGALKRARLVHPGVAEVVFVKKDDAITAYKKYNNRCLDGQPMKCNLHMNGNVITSDQPILLRLSDSPSMKKESELPRRVNSASSSNPPAEVDPDTILKALFKSSGASVTTQPTEFKIKL
target (unweighted spectral count of the protein in the RNP capture) [1]: 5
target (spectral count) [2]: 7
background (spectral count) [2]: 1
target (spectral count, OC43 Probe I RNP capture) [2]: 7
background (spectral count, no-probe control) [2]: 1

B4: DDX3X (protein, UniProt O00571 2-662, looked up)
ATP-dependent RNA helicase …: SHVAVENALGLDQQFAGLDLNSSDNQSGGSTASKGRYIPPHLRNREATKGFYDKDSSGWSSSKDKDAYSSFGSRSDSRGKSSFFSDRGSGSRGRFDDRGRSDYDGIGSRGDRSGFGKFERGGNSRWCDKSDEDDWSKPLPPSERLEQELFSGGNTGINFEKYDDIPVEATGNNCPPHIESFSDVEMGEIIMGNIELTRYTRPTPVQKHAIPIIKEKRDLMACAQTGSGKTAAFLLPILSQIYSDGPGEALRAMKENGRYGRRKQYPISLVLAPTRELAVQIYEEARKFSYRSRVRPCVVYGGADIGQQIRDLERGCHLLVATPGRLVDMMERGKIGLDFCKYLVLDEADRMLDMGFEPQIRRIVEQDTMPPKGVRHTMMFSATFPKEIQMLARDFLDEYIFLAVGRVGSTSENITQKVVWVEESDKRSFLLDLLNATGKDSLTLVFVETKKGADSLEDFLYHEGYACTSIHGDRSQRDREEALHQFRSGKSPILVATAVAARGLDISNVKHVINFDLPSDIEEYVHRIGRTGRVGNLGLATSFFNERNINITKDLLDLLVEAKQEVPSWLENMAYEHHYKGSSRGRSKSSRFSGGFGARDYRQSSGASSSSFSSSRASSSRSGGGGHGSSRGFGGGGYGGFYNSDGYGGNYNSQGVDWWGN
target (unweighted spectral count of the protein in the RNP capture) [1]: 17
target (unweighted spectral count, OC43 Probe II capture) ([3]; 36 hpi, type n_36_v): 7
target (unweighted spectral count) ([3]; 24 hpi (type n_24_v)): 7
target (unweighted spectral count, OC43 Probe II) [3]: 11
background (unweighted spectral count, no-probe control) [3]: 2

B5: PUF60: host protein, UniProt Q9UHX1 (protein, UniProt Q9UHX1 1-559, looked up)
Poly(U)-binding-splicing …: MATATIALQVNGQQGGGSEPAAAAAVVAAGDKWKPPQGTDSIKMENGQSTAAKLGLPPLTPEQQEALQKAKKYAMEQSIKSVLVKQTIAHQQQQLTNLQMAAVTMGFGDPLSPLQSMAAQRQRALAIMCRVYVGSIYYELGEDTIRQAFAPFGPIKSIDMSWDSVTMKHKGFAFVEYEVPEAAQLALEQMNSVMLGGRNIKVGRPSNIGQAQPIIDQLAEEARAFNRIYVASVHQDLSDDDIKSVFEAFGKIKSCTLARDPTTGKHKGYGFIEYEKAQSSQDAVSSMNLFDLGGQYLRVGKAVTPPMPLLTPATPGGLPPAAAVAAAAATAKITAQEAVAGAAVLGTLGTPGLVSPALTLAQPLGTLPQAVMAAQAPGVITGVTPARPPIPVTIPSVGVVNPILASPPTLGLLEPKKEKEEEELFPESERPEMLSEQEHMSISGSSARHMVMQKLLRKQESTVMVLRNMVDPKDIDDDLEGEVTEECGKFGAVNRVIIYQEKQGEEEDAEIIVKIFVEFSIASETHKAIQALNGRWFAGRKVVAEVYDQERFDNSDLSA
target (unweighted spectral count of the protein in the RNP capture) [1]: 7
target (spectral count, OC43 Probe I RNP capture) [2]: 9
background (spectral count, no-probe control) [2]: 1
target (unweighted spectral count, OC43 Probe II capture) ([3]; 36 hpi, type n_36_v): 7
target (unweighted spectral count, OC43 Probe II) [3]: 7
background (unweighted spectral count, no-probe control) [3]: 1
target (spectral count) ([3]; 36 hpi): 7
background (spectral count) ([3]; 36 hpi): 1

B6: RBMX (protein, UniProt P38159 1-391, looked up)
RNA-binding motif protein, X …: MVEADRPGKLFIGGLNTETNEKALEAVFGKYGRIVEVLLMKDRETNKSRGFAFVTFESPADAKDAARDMNGKSLDGKAIKVEQATKPSFESGRRGPPPPPRSRGPPRGLRGGRGGSGGTRGPPSRGGHMDDGGYSMNFNMSSSRGPLPVKRGPPPRSGGPPPKRSAPSGPVRSSSGMGGRAPVSRGRDSYGGPPRREPLPSRRDVYLSPRDDGYSTKDSYSSRDYPSSRDTRDYAPPPRDYTYRDYGHSSSRDDYPSRGYSDRDGYGRDRDYSDHPSGGSYRDSYESYGNSRSAPPTRGPPPSYGGSSRYDDYSSSRDGYGGSRDSYSSSRSDLYSSGRDRVGRQERGLPPSMERGYPPPRDSYSSSSRGAPRGGGRGGSRSDRGGGRSRY
target (unweighted spectral count of the protein in the RNP capture) [1]: 6
target (spectral count, OC43 Probe I RNP capture) [2]: 17
background (spectral count, no-probe control) [2]: 1
target (unweighted spectral count, OC43 Probe II capture) ([3]; 36 hpi, type n_36_v): 12
target (unweighted spectral count) ([3]; 12 hpi (type n_12_v)): 4
target (unweighted spectral count) ([3]; 24 hpi (type n_24_v)): 6
target (unweighted spectral count, OC43 Probe II) [3]: 20
background (unweighted spectral count, no-probe control) [3]: 1
